{"source": "patent US20040253612A1", "key": {"[1]": {"target": "c-myc monoclonal antibody 9E10", "assay": "immunoprecipitation with 9E10 and protein A-sepharose, acetic acid elution"}, "[2]": {"target": "c-myc monoclonal antibody 9E10", "assay": "competitive immunoprecipitation, 35S-labeled fusion, competitor unlabeled synthetic myc peptide"}, "[3]": {"target": "33 amino acid myc-epitope peptide coded for by RNA124", "sequence (peptide, as listed by the source)": "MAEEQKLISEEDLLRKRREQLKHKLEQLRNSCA", "assay": "immunoprecipitation of myc-epitope peptide compared with β-globin translation product"}, "[4]": {"target": "33 amino acid myc-epitope peptide coded for by RNA124", "assay": "immunoprecipitation of in vitro translated peptide, lane 4 (dilution buffer wash)"}}}
{"substance": "wild type c-myc fusion construct (peptide)", "values": [{"measurement": "percentage bound to the anti-myc antibody", "setting": "[1]", "result": 35, "unit": "%"}, {"measurement": "percent bound in the presence of unlabeled myc peptide", "setting": "[2]", "result": 9, "unit": "%"}]}
{"substance": "c-myc monoclonal antibody 9E10", "values": [{"measurement": "purification (fold) against β-globin protein", "setting": "[3]", "result": "> 100", "unit": "fold"}, {"measurement": "percent of the total TCA precipitable counts isolated", "setting": "[4]", "result": 83, "unit": "%"}]}
